Biological target: T1, recombinant human HSP90beta (Homo sapiens, UniProt P08238)
T1 construct: purchased Dr. S. Rüdiger, Cellular Protein Chemistry, Utrecht University
Test: ELISA: binding of HSP90 to immobilized (misfolded) protein ligands
Settings: 5 mM DTT in binding buffer
Method: Recombinant human HSP90beta was bought from Dr. S. Rüdiger (Cellular Protein Chemistry, Department of Chemistry, Faculty of Science, Utrecht University). HSP90beta eluted from an anion exchange column was supplied in 35 mM Bis-Tris/25mM Tris, 5 mM DTT, approximately 385 mM NaCl, approximately pH 9.0. The HSP90beta concentration was 5.0 μM (450 μg/ml with a MW of 90.000 Da; extinction coefficient of 53740 l/(mol*cm)). The supplied frozen stock is kept at −80° C. Before use, the stock is quickly thawed almost completely in a 37° C. water bath, and kept at wet ice. Before use, the HSP90beta solution is centrifuged for 5 minutes at 16,000*g at 4° C. During dilution of HSP90beta solution, 5 mM DTT should be incorporated in the dilution buffer, to keep free Cys residues. Thawed HSP90beta was aliquoted and snap frozen in liquid nitrogen before re-storage at −80° C.
Binding of chaperones to immobilized (misfolded) protein ligands was determined using an enzyme linked immuno sorbent assay (ELISA) approach. […] After 5 washes with wash buffer followed by two washes with PBS, binding of antibodies was assessed. […] Plates were read at 450 nm. Triplicates were averaged and standard deviations calculated. […]

T1 sequence (P08238 whole entry): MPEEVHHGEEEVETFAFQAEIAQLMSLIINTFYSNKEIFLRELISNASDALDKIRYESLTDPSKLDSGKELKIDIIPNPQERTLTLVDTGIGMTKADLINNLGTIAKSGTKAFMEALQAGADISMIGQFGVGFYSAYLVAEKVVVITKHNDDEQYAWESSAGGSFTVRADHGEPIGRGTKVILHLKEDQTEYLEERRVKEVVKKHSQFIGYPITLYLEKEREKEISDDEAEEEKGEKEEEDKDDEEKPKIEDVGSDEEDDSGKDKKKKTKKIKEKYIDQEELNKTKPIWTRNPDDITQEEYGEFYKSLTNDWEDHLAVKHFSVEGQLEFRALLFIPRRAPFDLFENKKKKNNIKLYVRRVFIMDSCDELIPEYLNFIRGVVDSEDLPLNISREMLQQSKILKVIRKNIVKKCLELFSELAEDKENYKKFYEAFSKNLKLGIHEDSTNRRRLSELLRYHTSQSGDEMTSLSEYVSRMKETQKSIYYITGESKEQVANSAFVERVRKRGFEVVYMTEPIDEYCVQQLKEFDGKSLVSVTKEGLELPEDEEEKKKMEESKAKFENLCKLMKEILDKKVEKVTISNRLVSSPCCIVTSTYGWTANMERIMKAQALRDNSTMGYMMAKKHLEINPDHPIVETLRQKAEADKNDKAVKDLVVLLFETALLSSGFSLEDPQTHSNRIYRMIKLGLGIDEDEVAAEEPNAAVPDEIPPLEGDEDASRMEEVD

Binding of concentration series of HSP90 to coated ligand: did also not bind
B1: dOVA standard: heat-denatured chicken ovalbumin (protein)
chain: GSIGAASMEFCFDVFKELKVHHANENIFYCPIAIMSALAMVYLGAKDSTRTQINKVVRFDKLPGFGDSIEAQCGTSVNVHSSLRDILNQITKPNDVYSFSLASRLYAEERYPILPEYLQCVKELYRGGLEPINFQTAADQARELINSWVESQTNGIIRNVLQPSSVDSQTAMVLVNAIVFKGLWEKAFKDEDTQAMPFRVTEQESKPVQMMYQIGLFRVASMASEKMKILELPFASGTMSMLVLLPDEVSGLEQLESIINFEKLTEWTSSNVMEERKIKVYLPRMKMEEKYNLTSVLMAMGITDVFSSSANLSGISSAESLKISQAVHAAHAEINEAGREVVGSAEAGVDAASVSEEFRADHPFLFCIKHIATNAVLFFGRCVSP

Reference: patent US20100015126A1, “Methods of Binding of Cross-Beta Structures By Chaperones” (priority 2006, published 2010)
